# Test results reported in patent publication US20200024352A1 (Eli Lilly, published 2020).
# T1: human Tim-3, full-length, on cells (human, UniProt Q8TDQ0 22-301)
# T1 construct: whole, on cells; also called cell surface Tim-3
# T1 sequence (looked up): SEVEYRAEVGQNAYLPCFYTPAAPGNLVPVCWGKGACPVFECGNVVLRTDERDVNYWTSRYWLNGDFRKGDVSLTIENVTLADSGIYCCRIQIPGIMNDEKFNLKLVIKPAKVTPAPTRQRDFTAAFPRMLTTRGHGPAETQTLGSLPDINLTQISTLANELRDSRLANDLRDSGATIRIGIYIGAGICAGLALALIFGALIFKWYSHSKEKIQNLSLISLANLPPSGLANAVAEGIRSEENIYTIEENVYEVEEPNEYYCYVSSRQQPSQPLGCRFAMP
# T2: human Tim-3-Fc (R&D Systems) (human, UniProt Q8TDQ0 22-130)
# T2 construct: Bought reagent; Biotinylated in the phosphatidylserine assay, ruthenylated (sulfo-tag) in the galectin-9 assay, plain and plate-coated in the ELISA and the CEACAM1 assay; also called hTIM-3-Fc; hTIM-3-Fc Biotin; not shown: Fc part of the bought fusion protein
# T2 sequence: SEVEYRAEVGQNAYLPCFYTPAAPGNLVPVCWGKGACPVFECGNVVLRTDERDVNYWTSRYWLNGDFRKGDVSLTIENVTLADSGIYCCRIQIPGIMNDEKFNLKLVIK
# T3: hTim-3-IgV-FLAG (human, UniProt Q8TDQ0 22-130, glycosylation at Asn99 (density seen in the crystal structure))
# T3 construct: Purified from 293HEK supernatant on anti-FLAG resin; also called hTim-3-FLAG; not shown: FLAG tag
# T3 sequence: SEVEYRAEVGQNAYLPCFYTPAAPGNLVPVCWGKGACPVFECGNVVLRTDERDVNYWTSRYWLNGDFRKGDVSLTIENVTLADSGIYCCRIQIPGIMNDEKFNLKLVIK
# Tests used:
# [1] = molecular target: T1, human Tim-3, full-length, on cells; assay: flow cytometry, A488-labelled antibody on Tim-3 DO11.10 cells
# [2] = molecular target: T2, human Tim-3-Fc (R&D Systems); assay: ELISA, plate-coated human Tim-3-Fc
# [3] = molecular target: T2, human Tim-3-Fc (R&D Systems); assay: MSD blocking assay, galectin-9-biotin on streptavidin plate as competitor, ruthenylated Tim-3-Fc
# [4] = molecular target: T4, human Tim-3-IgV-Fc single arm antigen (SAG) (human); assay: SPR, Biacore T100, antibody captured on Human Fab Binder, Tim-3 SAG as analyte, 1:1 Langmuir with mass transport
# T4 construct: the SAG construct itself is not described further; also called Tim-3 SAG; not shown: Fc part of the antigen arm, any linker to it, and the second antigen-free Fc arm
# [5] = molecular target: T2, human Tim-3-Fc (R&D Systems); assay: flow cytometry, block of hTIM-3-Fc Biotin binding to phosphatidylserine on camptothecin-treated DO11.10 cells
# hTim-3-IgV-FLAG = molecular target: T3, hTim-3-IgV-FLAG; assay: SPR, Biacore T200, Fab captured, hTim-3-IgV-FLAG as analyte, 25 C, 1:1 binding
# [6] = molecular target: T5, cynomolgus monkey PD-L1-Fc fusion protein (cynomolgus monkey, UniProt G7PSE7 19-238); assay: SPR, Biacore, Antibody B immobilized, cyno PD-L1-Fc as analyte, 37 C, 1:1 model
# T5 construct: also called Cyno PD-L1; not shown: Fc part
# [7] = molecular target: T6, human PD-L1-Fc fusion protein (human, UniProt Q9NZQ7 19-239); assay: blocking ELISA, PD-1-Fc on plate as competitor, biotinylated PD-L1-Fc
# T6 construct: also called human PD-L1-Fc (R&D Systems); biotinylated PD-L1-Fc fusion protein; not shown: Fc part
# [8] = molecular target: T6, human PD-L1-Fc fusion protein; assay: blocking ELISA, B7-1-Fc on plate as competitor, biotinylated PD-L1-Fc
# [9] = molecular target: T7, cell surface PD-L1 on MDA-MB231 cells (human, UniProt Q9NZQ7 19-290); assay: flow cytometry, Antibody B-biotin on MDA-MB231 cells, streptavidin-PE
# T7 construct: Endogenous PD-L1 of a PD-L1-positive human breast adenocarcinoma cell line; also called cell surface expressed human PD-L1
# [10] = molecular target: T6, human PD-L1-Fc fusion protein; assay: ELISA, plate-coated human PD-L1-Fc
# [11] = molecular target: T6, human PD-L1-Fc fusion protein; assay: SPR, Biacore, Antibody B immobilized, PD-L1-Fc as analyte, 37 C, 1:1 model
# T5 sequence (G7PSE7 entry or part of it): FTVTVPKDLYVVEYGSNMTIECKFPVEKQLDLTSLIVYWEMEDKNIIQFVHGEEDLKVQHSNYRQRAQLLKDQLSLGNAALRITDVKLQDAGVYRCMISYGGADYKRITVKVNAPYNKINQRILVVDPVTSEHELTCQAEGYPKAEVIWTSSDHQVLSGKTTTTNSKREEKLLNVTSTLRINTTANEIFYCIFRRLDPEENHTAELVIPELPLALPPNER
# T6 sequence (Q9NZQ7 19-239 limits assumed): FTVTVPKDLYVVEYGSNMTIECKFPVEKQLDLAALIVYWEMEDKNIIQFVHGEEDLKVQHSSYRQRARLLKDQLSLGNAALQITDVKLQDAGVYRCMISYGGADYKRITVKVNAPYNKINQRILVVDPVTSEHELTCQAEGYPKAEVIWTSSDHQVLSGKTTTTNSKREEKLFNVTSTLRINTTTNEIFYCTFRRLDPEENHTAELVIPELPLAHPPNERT
# T7 sequence (Q9NZQ7 19-290 limits assumed): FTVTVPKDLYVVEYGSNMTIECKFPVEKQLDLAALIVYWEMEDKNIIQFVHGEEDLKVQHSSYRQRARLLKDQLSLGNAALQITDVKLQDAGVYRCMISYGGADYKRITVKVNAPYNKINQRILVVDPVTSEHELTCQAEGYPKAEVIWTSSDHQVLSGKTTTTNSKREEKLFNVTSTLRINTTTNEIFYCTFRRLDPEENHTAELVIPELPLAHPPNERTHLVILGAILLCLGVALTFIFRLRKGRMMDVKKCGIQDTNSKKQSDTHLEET
binder,measurement,setting,value
"Antibody A (anti-Tim-3 Antibody) (antibody, human IgG1, kappa, V domains shown, Full IgG; also called anti-human Tim-3 antibody) VH: EVQLLESGGGLVQPGGSLRLSCAASGFTFSSYYMSWVRQAPGKGLEWVSAISGSGGSTYYADSVKGRFTISRDNSKNTLYLQMNSLRAEDTAVYYCARYARTAFDLWGQGTLVTVSS VL: DIVMTQSPSSLSASVGDGVTITCQASQDIYNYLNWYQQKPGKAPKLLIYAASSLQSGVPSRFSGSGSGTDFTLTISSLQPEDFATYYCQQANSFPPTFGQGTKLEIKR",EC50,[1],0.09 nM
same,EC50,[2],0.0207 nM
same,IC50,[3],5.6 nM
same,Kd,[4],0.398 nM
same,koff,[4],0.000927 s⁻¹
same,kon,[4],2.33e+06 M⁻¹ s⁻¹
same,IC50,[5],0.32 nM
"Antibody A-Fab (Fab, V domains shown, Made by clipping Antibody A with immobilized papain; also called Fab for Antibody A) VH: EVQLLESGGGLVQPGGSLRLSCAASGFTFSSYYMSWVRQAPGKGLEWVSAISGSGGSTYYADSVKGRFTISRDNSKNTLYLQMNSLRAEDTAVYYCARYARTAFDLWGQGTLVTVSS VL: DIVMTQSPSSLSASVGDGVTITCQASQDIYNYLNWYQQKPGKAPKLLIYAASSLQSGVPSRFSGSGSGTDFTLTISSLQPEDFATYYCQQANSFPPTFGQGTKLEIKR",Kd,hTim-3-IgV-FLAG,7.92 nM
same,koff,hTim-3-IgV-FLAG,0.00286 s⁻¹
same,kon,hTim-3-IgV-FLAG,362000 M⁻¹ s⁻¹
"Antibody B (Anti-PD-L1 Antibody) (antibody, human IgG1, lambda, V domains shown, Full IgG; also called Lilly PD-L1 antibody Antibody B; Antibody B-biotin) VH: QVQLVQSGAEVKKPGSSVKVSCKASGGTFSSYAISWVRQAPGQGLEWMGGIIPIFGTANYAQKFQGRVTITADKSTSTAYMELSSLRSEDTAVYYCARSPDYSPYYYYGMDVWGQGTTVTVSS VL: QSVLTQPPSASGTPGQRVTISCSGSSSNIGSNTVNWYQQLPGTAPKLLIYGNSNRPSGVPDRFSGSKSGTSASLAISGLQSEDEADYYCQSYDSSLSGSVFGGGIKLTVLG",Kd,[6],0.122 nM
same,koff,[6],0.000184 s⁻¹
same,kon,[6],1.51e+06 M⁻¹ s⁻¹
same,IC50,[7],0.95 nM
same,IC50,[8],2.4 nM
same,EC50,[9],0.14 nM
same,EC50,[10],0.11 nM
same,Kd,[11],0.082 nM
same,koff,[11],0.000114 s⁻¹
same,kon,[11],1.4e+06 M⁻¹ s⁻¹
